Patent US20030100094A1 (NEW ENGLAND BIOLABS, published 2003)
Where a chain is given by its changes, count along the chain named. Numbers in names are those of the source. One block for each binder: values may come before it.

Legend:
[1] = target: T1, BbvCI restriction endonuclease subunit R2 (wild type, 285 aa, 32 kDa) (Bacillus brevis); assay: SDS-PAGE of purified enzyme (subunits co-purify)
T1 construct: Recombinant, co-expressed with the R1 subunit in E. coli; also called BbvCI-R2; subunit 2
T1 chain: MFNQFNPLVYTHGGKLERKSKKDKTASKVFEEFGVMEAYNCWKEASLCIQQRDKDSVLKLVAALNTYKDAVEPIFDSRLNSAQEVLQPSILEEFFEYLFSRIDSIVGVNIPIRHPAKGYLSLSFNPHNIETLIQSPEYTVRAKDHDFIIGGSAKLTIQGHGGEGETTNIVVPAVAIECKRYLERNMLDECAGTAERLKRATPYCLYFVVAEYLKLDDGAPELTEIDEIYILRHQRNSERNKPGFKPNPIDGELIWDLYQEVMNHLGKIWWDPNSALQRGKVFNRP
Excerpt: (§1) FIG. 9. SDS-PAGE analysis of purified wild type R.BbvCI restriction endonuclease (lanes 2-3: prep. ‘Dan’; lanes 4-6: prep. ‘Diane’), and of purified N.BbvCI nicking endonucleases 2-12 (lanes 7-9), and 1-37 (lanes 10-12). Lane 1 (far left) contains molecular weight markers. All the enzymes preps migrate as two bands of roughly equal intensity signifying that the enzymes are heterodimers with 1:1 subunit stoichiometry.

[2] = target: T2, BbvCI subunit R2 E177G (mutated subunit of nicking enzyme N.BbvCI 2-12) (Bacillus brevis); assay: SDS-PAGE of purified enzyme (subunits co-purify)
T2 construct: The R2 subunit of enzyme mutant 2-12 (R1+:R2E177G), also called Nb.BbvCI; also called ECK->GCK
T2 chain: T1 chain with E177G
Excerpt: as §1

binding result [1]: binds
binding result [2]: binds
B1: BbvCI restriction endonuclease subunit R1 (wild type, 275 aa, 31 kDa) (enzyme)
chain: MINEDFFIYEQLSHKKNLEQKGKNAFDEETEELVRQAKSGYHAFIEGINYDEVTKLDLNSSVAALEDYISIAKEIEKKHKMFNWRSDYAGSIIPEFLYRIVHVATVKAGLKPIFSTRNTIIEISGAAHREGLQIRRKNEDFALGFHEVDVKIASESHRVISLAVACEVKTNIDKNKLNGLDFSAERMKRTYPGSAYFLITETLDFSPDENHSSGLIDEIYVLRKQVRTKNRVQKAPLCPSVFAELLEDILEISYRASNVKGHVYDRLEGGKLIRV
notes: Recombinant, co-expressed with the R2 subunit in E. coli; also called BbvCI-R1; subunit 1

binding result [1]: binds
B2: BbvCI subunit R1 E167G (mutated subunit of nicking enzyme N.BbvCI 1-37) (enzyme)
chain: B1 chain with E167G
notes: The R1 subunit of enzyme mutant 1-37 (R1E167G:R2+), also called Nt.BbvCI; also called EVK->GVK
